{"source": "patent US10508147B2", "about": "“Anti-nodal antibodies and methods of using same” (ANN AND ROBERT H. LURIE CHILDREN'S HOSPITAL OF CHICAGO, priority 2014, dated 2019)", "molecules": {"B1": {"name": "3D1: mouse monoclonal anti-Nodal antibody raised against hNodal(44-67); light chain SEQ ID NO:1, heavy chains SEQ ID NO:2 and 3 (protein)", "light": "DIKMTQSPASLSASVGETVTITCRASGNIHNYLAWYQQKQGKSPQLLVYNAKTLADGVPSRFSGSGSGTQYSLKINSLQPEDFGSYYCQHFWSTPHVRCWDQAGTETEAW", "heavy 1": "VKLVESGGGLVKPGGSLKLSCAASGFTFSSYAMSWVRQTPEKRLEWVASISSGGCTYYPDSVKGRFTISRDNARNILYLQMSSLRSEDTAMYYCARGSMITADGNSLLLCYGLLGSRNLXHR", "heavy 2": "VKLVESGGGLVQPGGSMKLSCVASGFTFRNYWMSWVRQSPEKGLEWVAEIRLKSDNYAARYAESVKGKFTISRDDSKSRLYLQMNSLRAEDTGIYYCTGIRRFAYWGQGTL", "modifications": "not fully specified; (120)..(120) Xaa can be any naturally occurring amino acid"}}, "target": "T1, rhNodal (Homo sapiens, UniProt Q96S42)", "T1 construct": "E. coli derived His238 Leu347, with an N-terminal Met; purchased R&D System 3218ND; host or cells: E. coli", "T1 sequence (Q96S42 238-347)": "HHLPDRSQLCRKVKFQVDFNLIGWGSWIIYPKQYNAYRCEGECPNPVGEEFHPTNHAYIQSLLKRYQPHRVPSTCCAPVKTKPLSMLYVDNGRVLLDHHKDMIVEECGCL", "test": "SPR direct binding of mAbs and 3D1 fragments to rhNodal immobilized on a CM5 sensor chip", "method": "Antibodies (mAbs) that selectively recognized wild type human Nodal (E49E50) were further screened in order to identify mAbs that bound full length Nodal. Surface plasmon resonance (SPR) biosensor direct binding assay was used. Recombinant human Nodal protein (rhNodal, E. coli derived His238 Leu347, with an N-terminal Met Accession # Q96S42, cat. num 3218ND, R&D System) was immobilized on a CM5 sensor chip.\nSPR analyses were performed on a Biacore 3000 instrument from GE Healthcare, using CM5 sensor chips and certified HBS buffer (20 mM HEPES, 0.15 M NaCl, pH 7.4, P20, 0.005%). Protein immobilization was carried out following the canonical amine coupling chemistry using the surface immobilization wizard procedure, operating at 5 μL/min. Channels were activated with EDC/NHS for 7 min; for the binding assays of purified mAbs to Nodal protein, rhNodal, opportunely diluted in the pre-selected sodium acetate buffer pH 4.5, was coupled until a 4000 RU level was achieved. Residual reactive groups on the sensor chip surface were deactivated by addition of 1.0 M ethanolamine hydrochloride, pH 8.5. Antibody binding was tested at 20 μL/min injecting solutions of 3D1 (60 μL) in HBS-EP at increasing concentrations (6-100 nM). A 10 mM NaOH solution was used to regenerate the chip surface.\nAfter the single-dose screening, dose-dependent binding analyses were carried out with the two antibodies, 3D1 and 5F10, able to bind the full-length protein. Binding of 3D1 was carried out at concentrations ranging between 6 and 100 nM. For 5F10 higher concentrations were required (100, 250, 500 and 750 nM). Dissociations were monitored for at least 500 s. To carry out the mapping of the 3D1 epitope, the whole antibody was immobilized at 5 μg/mL in 10 mM NaAc buffer pH 5 at a flow rate of 5 μL/min by standard amine coupling chemistry on a CM5 sensor chip. The immobilization level reached with the mAb was about 5350 RU. On another channel of the same sensor chip, the 3D1 Fab′ was immobilized at 10 μg/mL in 10 mM NaAc buffer pH 4.5 at a flow rate of 5 μL/min, following the standard amine coupling chemistry. The amount of immobilized Fab′ was about 2570 RU. Residual reactive groups were deactivated by 1M ethanolamine hydrochloride, pH 8.5. The blank channel was prepared as already described. Real-time binding analyses were performed at a flow rate of 20 μL/min, using HBS-EP buffer, injecting a constant sample volume of 60 μL. Peptides opportunely diluted in HBS-EP buffer were injected at the following concentrations: 0.5, 1, 2.5, 5, 10, and 20 μM. Dissociations were monitored for at least 500 s; the regeneration solution was 5 mM NaOH.\nFor each analysis, experimental sensorgrams were aligned, subtracted of blank signals and overlapped. All mathematical manipulations and fitting were performed using the BiaEvaluation software, vers. 4.1 from GE Healthcare. All experimental data gave optimal fittings when processed assuming a 1:1 Langmuir binding interaction.\nSPR analyses were performed at 25° C. using HBS as running buffer. Protein immobilization was carried out following the canonical amine coupling chemistry using the surface immobilization wizard procedure, operating at 5 μL/min. Channels were activated with EDC/NHS [N-(3-dimethylaminopropyl)-N′-ethylcarbodiimide hydrochloride(EDC)/[…](NHS) for 7 min; for the binding assays, rhNodal, appropriately diluted in the pre-selected sodium acetate buffer pH 4.5, was coupled until a 4000 RU level was achieved. Residual reactive groups on the sensor chip surface were deactivated by addition of 1.0 M ethanolamine hydrochloride, pH 8.5. Antibody binding was tested at 20 μL/min injecting solutions of 3D1 (60 μL) in HBS at increasing concentrations (6.0 nM-100 nM). A 10 mM NaOH solution was used to regenerate the chip surface. […]", "note": "Where “and” joins values, the source holds several entries; their conditions need not be identical. Equal values may be shown once."}
{"molecule": "B1", "values": [{"measurement": "average kd", "value": 0.000655, "unit": "s⁻¹"}, {"measurement": "Kd", "setting": "Average over concentrations", "value": 1.42, "unit": "nM"}, {"measurement": "ka", "setting": "Average over concentrations", "value": 695000, "unit": "M⁻¹ s⁻¹"}, {"measurement": "kd", "setting": "Average over concentrations", "value": 0.000655, "unit": "s⁻¹"}, {"measurement": "Kd", "setting": "Example 1, hNodal immobilized on CM5 chip, antibody injected", "value": "~1.3", "unit": "nM"}, {"measurement": "Kd", "setting": "Examples 2 and 4, running text, averaged over dose-dependent runs", "value": "1.42 nM and 1.4 nM"}, {"measurement": "Kd", "setting": "analyte injected at 6 nM", "value": 0.491, "unit": "nM"}, {"measurement": "ka", "setting": "analyte injected at 6 nM", "value": "1.28e+06", "unit": "M⁻¹ s⁻¹"}, {"measurement": "kd", "setting": "analyte injected at 6 nM", "value": 0.000629, "unit": "s⁻¹"}, {"measurement": "Kd", "setting": "analyte injected at 12 nM", "value": 0.698, "unit": "nM"}, {"measurement": "ka", "setting": "analyte injected at 12 nM", "value": 979000, "unit": "M⁻¹ s⁻¹"}, {"measurement": "kd", "setting": "analyte injected at 12 nM", "value": 0.000683, "unit": "s⁻¹"}, {"measurement": "Kd", "setting": "analyte injected at 25 nM", "value": 0.968, "unit": "nM"}, {"measurement": "ka", "setting": "analyte injected at 25 nM", "value": 642000, "unit": "M⁻¹ s⁻¹"}, {"measurement": "kd", "setting": "analyte injected at 25 nM", "value": 0.000622, "unit": "s⁻¹"}, {"measurement": "Kd", "setting": "analyte injected at 50 nM", "value": 1.93, "unit": "nM"}, {"measurement": "ka", "setting": "analyte injected at 50 nM", "value": 361000, "unit": "M⁻¹ s⁻¹"}, {"measurement": "kd", "setting": "analyte injected at 50 nM", "value": 0.000697, "unit": "s⁻¹"}, {"measurement": "Kd", "setting": "analyte injected at 100 nM", "value": 3.03, "unit": "nM"}, {"measurement": "ka", "setting": "analyte injected at 100 nM", "value": 212000, "unit": "M⁻¹ s⁻¹"}, {"measurement": "kd", "setting": "analyte injected at 100 nM", "value": 0.000644, "unit": "s⁻¹"}, {"measurement": "ability to bind the full-length rhNodal protein", "setting": "single-dose SPR screening, mAbs at 100 nM", "value": "able to bind the full-length rhNodal protein"}]}
